Numbering of substitutions follows the chain as printed. Names and notes keep the numbering of the source. Values belong to the binder of their own block, whether it stands above or below them.
How the values were obtained:
[1] = target: Nedd8 (endogenous protein of 293T cells) (human, UniProt Q15843 1-76); assay: anti-Nedd8 immunoblot of anti-HA immune complexes from 293T cells, non-reducing SDS-PAGE
[2] = target: ubiquitin (endogenous protein of 293T cells) (human, UniProt P0CG48 1-76); assay: LC/MS/MS (LTQ-Orbitrap) of Flag-HA-Uba6˜Ub purified from mammalian cells

Chain of Nedd8 (endogenous protein of 293T cells) (Q15843 1-76 limits assumed): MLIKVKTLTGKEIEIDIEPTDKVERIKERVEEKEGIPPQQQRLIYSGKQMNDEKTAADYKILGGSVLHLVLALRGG

- binding result [1]: no binding
B1: Flag-HA-Uba6^C625S (enzyme)
chain: MEGSEPVAAHQGEKASCSSWGTGSTNKNLPIMSTASVEIDDALYSRQRYVLGDTAMQKMAKSHVFLSGMGGLGLEIAKNLVLAGIKAVTIHDTEKCQAWDLGTNFFLSEDDVVNKRNRAEAVLKHIAELNPYVHVTSSSAPFNETTDLSFLDKYQCVVLTEMKLPLQKKINDFCRSQCPPIKFISADVHGIWSRLFCDFGDEFEVLDTTGEEPKEIFISNITQTNPGIVTCLENHPHKLETGQFLTFREINGMTGLNGSIQQITVISPFSFSIGDTTELEPYLHGGIAVQVKTPKTVFFESLERQLKHPKCLIVDFSNPEAPLEIHTAMLALDQFQEKYSRKPNVGCQQDSEELLKLATSISETLEEKPDVNADIVHWLSWTAQGFLSPLAAAVGGVASQEVLKAVTGKFSPLCQWLYLEAADIVESLGKPECEEFLPRGDRYDALRACIGDTLCQKLQNLNIFLVGCGAIGCEMLKNFALLGVGTSKEKGMITVTDPDLIEKSNLNRQFLFRPHHIQKPKSYTAADATLKINSQIKIDAHLNKVCPTTETIYNDEFYTKQDVIITALDNVEARRYVDSRCLANLRPLLDSGTMGTKGHTEVIVPHLTESYNSHRDPPEEEIPFSTLKSFPAAIEHTIQWARDKFESSFSHKPSLFNKFWQTYSSAEEVLQKIQSGHSLEGCFQVIKLLSRRPRNWSQCVELARLKFEKYFNHKALQLLHCFPLDIRLKDGSLFWQSPKRPPSPIKFDLNEPLHLSFLQNAAKLYATVYCIPFAEEDLSADALLNILSEVKIQEFKPSNKVVQTDETARKPDHVPISSEDERNAIFQLEKAILSNEATKSDLQMAVLSFEKDDDHNGHIDFITAASNPRAKMYSIEPADRFKTKRIAGKIIPAIATTTATVSGLVALEMIKVTGGYPFEAYKNCFLNLAIPIVVFTETTEVRKTKIRNGISFTIWDRWTVHGKEDFTLLDFINAVKEKYGIEPTMVVQGVKMLYVPVMPGHAKRLKLTMHKLVKPTTEKKYVDLTVSFAPDIDGDEDLPGPPVRYYFSHDTD
notes: Catalytic cysteine changed to serine; also called C625S mutant; Flag-HA-Ub6^C625S; not shown: N-terminal Flag-HA tag

- binding result [2]: binds
B2: Flag-HA-Uba6 (enzyme)
chain: B1 chain with S625C
notes: also called HA-Flag-Uba6; wild-type Uba6 with N-terminal Flag-HA tag; not shown: N-terminal Flag-HA tag
